Tests used:
Assay type in all cases: biochemical, Z. mays
[1] = test system: 4-hydroxyphenylpyruvate dioxygenase (HPPD); assay: ON rate ratio: HPPD reaction rate with vs without inhibitor in the 70 to 90 second interval; settings: Table 7; tembotrione; combinatorial variants
Excerpt: (§1) Higher KD (reduced affinity or increased insensitivity) can be attained with a numerically smaller ON rate, a larger OFF rate or both. To detect and quantify changes in kON and kOFF, observations of the time course of an HPPD reaction as inhibitor binds to and inactivates the enzyme (kON), or is released from a pre-formed enzyme-inhibitor complex (kOFF) were used, as shown in FIGS. 13A and 13B. In practice, a quantitative indicator of kON was obtained by monitoring the time courses of HPPD reactions containing 60 or 120 nM HPPD and 100 μM HPP in the presence and absence of 4 μM inhibitor (e.g., mesotrione or tembotrione). The ratio of the reaction rate with inhibitor to that without inhibitor during the 70 to 90 second interval of the reaction was termed the “ON rate ratio”. The smaller the actual kON, the more slowly the HPPD reaction decelerates and the higher the value is for the ON rate ratio. FIGS. 13A and 13B illustrate the contrasting reaction velocity in the 70-90 sec interval for maize wild-type HPPD (FIG. 13A) versus an improved variant (SEQ ID NO:78) (FIG. 13B).

[2] = test system: 4-hydroxyphenylpyruvate dioxygenase (HPPD); assay: Estimate of kcat from initial rate at saturating hydroxyphenylpyruvate without inhibitor (ON rate ratio assay)
Excerpt: as §1
Thirty nine variants were desensitized to tembotrione compared with the backbone enzyme, Round 7, variant 9070 (SEQ ID NO:2) and all were desensitized compared with maize wild type HPPD (SEQ ID NO:1). Because the assay for ON rate ratio includes an initial rate measurement at saturating hydroxyphenylpyruvate without inhibitor and with known enzyme concentration, an estimate of kcat was available. Taking into account kcat and insensitivity parameters, 30 variants were selected for measurement of substrate saturation kinetic parameters and re-evaluation of insensitivity to tembotrione. The kinetic and insensitivity parameters were determined as described in Example 1, and were multiplied to generate the “trait fitness” parameter. The complete list of variants, i.e., of selected single substitutions in SEQ ID NO:2, analyzed with multiple inhibitors and the results obtained are shown in Table 6. The same set of 30 variants were evaluated for insensitivity to mesotrione, sulcotrione, isoxaflutole (its active diketonitrile form, abbreviated DKN in Table 6) and topramezone.

[3] = test system: 4-hydroxyphenylpyruvate dioxygenase (HPPD); assay: OFF rate ratio: release of inhibitor from pre-formed enzyme-inhibitor complex; settings: Table 7; tembotrione; combinatorial variants
Protocol: A quantitative indicator of kOFF can be obtained by observing the time course of an HPPD reaction as inhibitor is released from a pre-formed enzyme-inhibitor complex. HPPD and inhibitor were incubated together at concentrations of 7.2 and 8 μM, respectively. Incubations with the same concentrations of enzyme but no inhibitor were done in parallel. After 1 hr at room temperature, 5 to 10 μl of the enzyme-inhibitor complex was dispensed into the wells of the assay plate. Reactions were started with the addition of 290 to 295 μl of 25 mM Hepes, pH 7, 2 mM ascorbate, 10 μM FeSO4, 100 μM HPP and 50 nM HGD. The reactions were monitored at 320 nm for 12 min. Reaction velocity accelerates as inhibitor is released from the enzyme until a steady state is reached, during which the reaction velocity is constant. The ratio of the steady state rate in mixtures containing herbicidal inhibitor to the initial velocity of mixtures lacking inhibitor is termed the “OFF rate ratio”.
Another parameter to record is the time span required for the reactions with inhibitor to reach the steady state. FIGS. 13C and 13D illustrate the contrasting time span in which maize wild-type HPPD (FIG. 13C) and an improved variant (SEQ ID NO:78) (FIG. 13D) dissociated from mesotrione, as indicated by the accelerating reaction rates. The plateau of absorbance is due to exhaustion of the substrate. With the improved variant, not only was the steady state attained in a shorter time span (80 sec for the variant versus 280 sec for wild type), the velocity attained was twice as high as with wild type, though the enzymes were present at the same concentration (240 nM). This is because a larger fraction of the variant enzyme is free of inhibitor compared to the wild-type enzyme, and the kcat for both is nearly the same, about 220 min^−1.

[4] = test system: 4-hydroxyphenylpyruvate dioxygenase (HPPD); assay: Insensitivity parameter (ON × OFF) and trait fitness (ON × OFF × kcat/KM or × kcat); set-up: key to ON × OFF / Insensitivity, mesotrione, ON × OFF / Insensitivity, tembotrione, ON × OFF / Insensitivity, topramezone, ON × OFF / Insensitivity, sulcotrione, ON × OFF / Insensitivity, isoxaflutole (DKN), ON × OFF: insensitivity = ON rate ratio × OFF rate ratio (surrogate for KD)
Excerpt: Because substrate and inhibitors bind in the same site, the high concentration of substrate present may competitively trap the inhibitor and prevent it from binding again. To be sure that improvement in ON rates is being taken into account, the ON and OFF rate ratios were multiplied, creating an “insensitivity parameter” that is a surrogate for KD. KD is expressed as kOFF/kON, but because the ON rate ratio is an inverse parameter (the higher the value of ON rate ratio, the lower the value of the represented phenomenon, kON), it is appropriate to multiply ON and OFF rate ratios rather then divide OFF rate ratio by ON rate ratio. Another parameter, which quantifies the combined catalytic and insensitivity properties of the enzyme is kcat/KM×ON rate ratio×OFF rate ratio, and is termed “trait fitness”. This parameter is intended to have a meaning similar to the commonly used expression kcat/KM×Ki.

[5] = Table 7, combinatorial variants
[6] = Table 7, tembotrione, combinatorial variants

ON rate ratio [1]	OFF rate ratio [3]	ON × OFF ([4]; Megatable 3, shuffled variants)	ON × OFF [4, 6]	Molecule	kcat ([2]; Megatable 3, shuffled variants)	kcat [2, 5]	ON × OFF × kcat ([4]; Megatable 3, shuffled variants)	ON × OFF × kcat [4, 6]
0.669	0.324	0.217	0.217	P056028-A-08 (protein, Zea mays variant form created by artificial means.) MGPTPTATAAGAAVAAASAAEQAAFRLVGHRNFVRFNPRSDRFQTLAFHHVELWCADAASAAGRFSFALGVPLAARSDLSTGNSAHASLLLRSGSLSLLFTAPYAHGADAATAALPSFSAAAARRFAADHGLAVRAVALRVADAEDAFRASVAAGARPAFGPVDLGRGFRLAEVELYGDVVMRYVSYPDGAAGEPFLPGFEGVASQGAADYGLSRFDHIVGNVPELAPAAAYMAGFTGFHEFAEFTTEDVGTTESGLNSMALANNSENVLLPLNEPVRGTKRRSQIQTFLDHHGGPGVQHIALASDDVLRTLREMRARSAMGGFEFLPPPLSDYYDGVRKCAGDVLTEAQINECQELGVMVDRDDEGVLLQIFTKPVGDRPTFFLEIIQRIGCMEKDEKGQEYQKGGCGGFGKGNFGQLFKSIEDYEKSLEAKQAAATATAQGS	0.437 s⁻¹	0.437 s⁻¹	5.68	5.68
0.706	0.366	0.258	0.258	P056028-A-11 (protein, Zea mays variant form created by artificial means.) MGPTPTATAAGAAVAAASAAEQAAFRLVGHRNFVRFNPRSDRFQTLAFHHVELWCADAASAAGRFSFALGVPLAARSDLSTGNSAHASLLLRSGSLSLLFTAPYAHGADAATAALPSFSAAAARRFAADHGLAVRAVALRVADAEDAFRASVAAGARPAFGPVDLGRGFRLAEVELYGDVVLRYVSYPDGAAGEPFLPGFEGVASPGAADYGLSRFDHIVGNVPELAPAAAYMAGFTGFHEFAEFTTEDVGTTESGLNSMALANNSENVLLPLNEPVHGTKRRSQIQTFLDHHGGPGVQHIALASDDVLRTLREMRARSAMGGFEFLPPPLSDYYDGVRRCAGDVLTEAQINECQELGVMVDRDDEGVLLQIFTKPVGDRPTFFLEIIQRIGCMEKDEKGQEYQKGGCGGFGKGNFSQLFKSIEDYEKSLEAKQAAAAATAQGS	0.143 s⁻¹	0.143 s⁻¹	2.21	2.21
0.707	0.367	0.260	0.260	P056028-A-10 (protein, Zea mays variant form created by artificial means.) MGPTPTATAAGAAVAAASAAEQAAFRLVGHRNFVRFNPRSDRFQTLAFHHVELWCADAASAAGRFSFALGVPLAARSDLSTGNSAHASLLLRSGSLSLLFTAPYAHGADAATAALPSFSAAAARRFAADHGLAVRAVALRVADAEDAFRASVAAGARPAFGPVDLGRGFRLAEVELYGDVVLRYVSYPDGAAGEPFLPGFEGVASQGAADLGLSRFDHIVGNVPELAPAAAYMAGFTGFHEFAEFTTEDVGTTESGLNSMALANNSENVLLPLNEPVHGTKRRSQIQTFLDHHGGPGVQHIALASDDVLRTLREMRARSAMGGFEFLPPPLSDYYDGVRRCAGDVLTEAQINECQKLGVMVDRDDEGVLLQIFTKPVGDRPTFFLEIIQRIGCMEKDEKGQEYQKGGCGGFGKGNFGQLFKSIEDYEKSLEAKQAAAAATAQGS	0.28 s⁻¹	0.28 s⁻¹	4.35	4.35

More lines, now with the values behind:

Molecule	ON rate ratio [1]	OFF rate ratio [3]	ON × OFF ([4]; Megatable 3, shuffled variants)	ON × OFF [4, 6]	kcat ([2]; Megatable 3, shuffled variants)	kcat [2, 5]	ON × OFF × kcat ([4]; Megatable 3, shuffled variants)	ON × OFF × kcat [4, 6]
P056028-A-05 (protein, Zea mays variant form created by artificial means.) MGPTPTATAAGAAVAAASAAEQAAFRLVGHRNFVRFNPRSDRFQTLAFHHVELWCADAASAAGRFSFALGVPLAARSDLSTGNSAHASLLLRSGSLSLLFTAPYAHGADAATAALPSFSAAAARRFAADHGLAVRAVALRVADAEDAFRASVAAGARPAFGPVDLGRGFRLAEVELYGDVVLRYVSYPDGAAGEPFLPGFEGVASQGAADYGLSRFDHIVGNVPELAPAAAYMAGFTGFHEFAEFTTEDVGTTESGLNSMALANNSENVLLPLNEPVHGTKRRSQIQTFLDHHGGPGVQHIALASDDVLRTLREMRARSAMGGFEFLPPPLSDYYDGVRKCAGDVLTEAQINECQELGVMVDRDDEGVLLQIFTKPVGDRPTFFLEIIQRIGCMEKDEKGQEYQKGGCGGFGKGNFGQLFKSIEDYEKSLEAKQAAAAATAQGS	0.707	0.280	0.198	0.198	0.295 s⁻¹	0.295 s⁻¹	3.50	3.50
P056028-A-04 (protein, Zea mays variant form created by artificial means.) MGPTPTATAAGAAVAAASAAEQAAFRLVGHRNFVRFNPRSDRFQTLAFHHVELWCADAASAAGRFSFALGVPLAARSDLSTGNSAHASLLLRSGSLSLLFTAPYAHGADAATAALPSFSAAAARRFAADHGLAVRAVALRVADAEDAFRASVAAGARPAFGPVDLGRGFRLAEVELYGDVVLRYVSYPDGAAGEPFLPGFEGVASPGAADYGLSRFDHIVGNVPELAPAAAYMAGFTGFHEFAEFTTEDVGTTESGLNSMALANNSENVLLPLNEPVHGTKRRSQIQTFLDHHGGPGVQHIALASDDVLRTLREMRARSAMGGFEFLPPPLSDYYDGVRRCAGDVLTEAQINECQRLGVMVDRDDEGVLLQIFTKPVGDRPTFFIEIIQRIGCMEKDEKGQEYQKGGCGGFGKGNFGQLFKSIEDYEKSLEAKQAAAAATAQGS	0.724	0.133	0.096	0.096	0.185 s⁻¹	0.185 s⁻¹	1.06	1.06
P056028-A-07 (protein, Zea mays variant form created by artificial means.) MGPTPTATAAGAAVAAASAAEQAAFRLVGHRNFVRFNPRSDRFQTLAFHHVELWCADAASAAGRFSFALGVPLAARSDLSTGNSAHASLLLRSGSLSLLFTAPYAHGADAATAALPSFSAAAARRFAADHGLAVRAVALRVADAEDAFRASVAAGARPAFGPVDLGRGFRLAEVELYGDVVLRYVSYPDGGAGEPFLPGFEGVASQGAADLGLSRFDHIVGNVPELAPAAAYMAGFTGFHEFAEFTTEDVGTTESGLNSMALANNSENVLLPLNEPVHGTKRRSQIQTFLDHHGGPGVQHIALASDDVLRTLREMRARSAMGGFEFLPPPLSDYYDGVRRCAGDVLTEAQINECQELGVMVDRDDEGVLLQIFTKPVGDRPTFFLEIIQRIGCMEKDEKGQEYQKGGCGGFGKGNFGQLFKSIEDYEKSLEAKQAAAAATAQGS	0.726	0.329	0.239	0.239	0.325 s⁻¹	0.325 s⁻¹	4.65	4.65

Reference: patent US11015206B2, “Compositions and methods comprising sequences having hydroxyphenylpyruvate dioxygenase (HPPD) activity” (PIONEER HI-BRED INTERNATIONAL, INC., priority 2014, dated 2021)
